Experimental data: publication PMC9373814, “3p-C-NETA: A versatile and effective chelator for development of Al^18F-labeled and therapeutic radiopharmaceuticals” (Theranostics, 2022)

Experiments:
SSTR2 [1] = target: T1, SSTR2 (Rattus norvegicus, UniProt P30680); design: method as in PMID 31997090; details: naïve rats, 2 h p.i.; cited from earlier work
T1 construct: from tissue; host or cells: female Wistar rats in vivo (adrenals, pituitary, pancreas)

SSTR2 [2] = system: T2, SSTR2; test: in vivo; details: female, Wistar, rat, iv, total radioactivity
T2 construct: from tissue; host or cells: female Wistar rats in vivo (adrenals, pituitary, pancreas)
Experimental: Dynamic PET scans were performed on a small animal PET/MR scanner based on previously reported protocol. Briefly, female Wistar rats (208-231 g) were anaesthetized with a 5% isoflurane/ oxygen mixture before being maintained at 1-2% isoflurane/1 L/minute throughout the experiment. Rats tail veins were cannulated before being placed in the imaging cell (Bruker Biospin) which was then placed into the scanner; temperature and respiration were monitored throughout the scanning via a physiological monitoring system (SA Instruments, Stony Brook, NY, USA). Rats were injected with [^18F]AlF-3p-C-NETA-TATE (5.5-18.5 MBq, apparent molar activity 22 ± 8 GBq/μmol) at the start of the PET acquisition in presence or absence of octreotide acetate (2.5 mg/kg co-injection with radiopharmaceutical; blocking scans were performed the following day in the same animals). 75 min scans were carried out with the pituitary to kidneys in the PET FOV, during which respiration-gated 3D spin-echo MRI (TurboRARE sequence, TR = 500 mseconds (ms), TE = 18.8 ms, RARE factor = 8, FOV 14x6x6 cm, isotropic resolution of 0.5 mm) images were acquired with a quadrature radio-frequency resonator (transmit/receive, 86 mm internal diameter, Bruker Biospin). PET and MRI scans were then repeated at 100-120 minutes with the animal in the same position. Dynamic PET data were divided into timeframes (4×15 s, 1×240 s, 7×600 s) with corrections for decay, randoms, scatter and deadtime and then reconstructed using an MLEM algorithm with 24 iterations and an isotropic voxel size of 0.5 mm. PET images were normalized to injected activity and animal weight to give standardized uptake values (SUV), and selected organs were outlined to create volumes of interest after coregistration with MR images of which SUVmean values are reported; a circular VOI was placed over the splenic division of the pancreas (as visualised via tracer uptake and mapped to the blocked scan) to determine pancreatic uptake. All image analysis was carried out using the PFUSIT module of PMOD (v 4.004, PMOD Technologies Ltd., Zurich, Switzerland). Quantitative data are expressed as mean ± standard error of the mean (SEM).

T1 sequence (P30680 whole entry): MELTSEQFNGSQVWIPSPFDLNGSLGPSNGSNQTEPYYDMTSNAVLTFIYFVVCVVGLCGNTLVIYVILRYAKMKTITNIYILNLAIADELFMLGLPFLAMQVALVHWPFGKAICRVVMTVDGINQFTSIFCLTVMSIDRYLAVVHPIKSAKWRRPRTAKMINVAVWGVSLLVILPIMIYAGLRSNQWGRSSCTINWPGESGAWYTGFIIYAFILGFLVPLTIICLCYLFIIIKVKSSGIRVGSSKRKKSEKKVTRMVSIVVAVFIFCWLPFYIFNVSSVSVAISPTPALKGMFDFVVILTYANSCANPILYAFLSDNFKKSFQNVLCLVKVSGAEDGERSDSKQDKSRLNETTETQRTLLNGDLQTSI

[^18F]AlF-NOTA-Octreotide
SUV bone uptake in the spine (SSTR2 [1]): 0.45 ± 0.03

C[C@@H](O)[C@H](NC(=O)[C@@H]1CSSC[C@H](NC(=O)[C@@H](Cc2ccccc2)NC(=O)CCC(=O)Nc2ccc(CCCC(CN3CCN(CC(=O)O)CCN(CC(=O)O)CC3)N(CC(=O)O)CC(=O)O)cc2)C(=O)N[C@@H](Cc2ccc(O)cc2)C(=O)N[C@H](Cc2c[nH]c3ccccc23)C(=O)N[C@@H](CCCCN)C(=O)N[C@@H]([C@@H](C)O)C(=O)N1)C(=O)O (stereo partly drawn) [[^18F]AlF-3p-C-NETA-TATE]
SUV at 1.25 h (SSTR2 [2]; 2.5 mg/kg, SUV adrenals): 0.24 ± 0.03 SUV
SUV at 2 h (SSTR2 [2]; 2.5 mg/kg, SUV adrenals): 0.18 ± 0.04 SUV
SUV at 1.25 h (SSTR2 [2]; 2.5 mg/kg, SUV pancreas): 0.34 ± 0.2 SUV
SUV at 2 h (SSTR2 [2]; 2.5 mg/kg, SUV pancreas): 0.31 ± 0.07 SUV
SUV at 1.25 h (SSTR2 [2]; 2.5 mg/kg, SUV pituitary): 0.2 ± 0.04 SUV
SUV at 2 h (SSTR2 [2]; 2.5 mg/kg, SUV pituitary): 0.21 ± 0.06 SUV
SUV at 1.25 h (SSTR2 [2]; SUV adrenals): 1.2 ± 0.59 SUV
SUV at 2 h (SSTR2 [2]; SUV adrenals): 1.22 ± 0.65 SUV
SUV at 2 h (SSTR2 [2]; SUV blood and non-SSTR2 expressing organs): < 0.6 SUV
SUV at 2 h (SSTR2 [2]; SUV bone uptake in the spine): 0.43 ± 0.25 SUV
SUV at 1.25 h (SSTR2 [2]; SUV pancreas): 7.78 ± 4.26 SUV
SUV at 2 h (SSTR2 [2]; SUV pancreas): 8.35 ± 5.07 SUV
SUV at 1.25 h (SSTR2 [2]; SUV pituitary): 0.93 ± 0.34 SUV
SUV at 2 h (SSTR2 [2]; SUV pituitary): 0.93 ± 0.36 SUV
